Results published in article PMC4663627.

Target: T1, p19 (GST-p19) (Cymbidium ringspot virus (CymRSV)) (UniProt P17457)
T1 sequence: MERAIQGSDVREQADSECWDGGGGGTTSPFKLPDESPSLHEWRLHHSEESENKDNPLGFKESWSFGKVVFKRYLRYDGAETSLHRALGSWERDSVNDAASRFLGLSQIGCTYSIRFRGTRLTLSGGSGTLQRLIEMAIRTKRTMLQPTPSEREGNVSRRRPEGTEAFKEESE
Experiment: SiNW-FET conductance, Langmuir fit
Conditions: phosphate solution (240 uM NaH2PO4, 760 uM Na2HPO4), pH 7.4, Debye length 6.1 nm, temperature not given

Row | Sequence | Kd (5'-phosphate) [nM] | Kd [nM]
1 | CGUACGCGGAAUACUUCGAUU / UCGAAGUAUUCCGCGUACGUU [ds-sRNA-0] | 16 | 
2 | GCGACGCGGAAUACUUCGAUU / UCGAAGUAUUCCGCGUACGUU [ds-sRNA-2] |  | 227
3 | GCGACGCGGAAUACUUGCUUU / UCGAAGUAUUCCGCGUACGUU [ds-sRNA-3] |  | 1140
